For this assay, the system named is casein. Nature of the assay: Casein zymography and protease assay with casein sodium. It is filed as biochemical. The settings on record: casein zymography and casein sodium protease assay, 37° C., E. coli-expressed His-tagged protein. The protocol:
Determination of the activity of mature HtrA2 and mature HtrA2 (S306A) was carried out with casein zymography and with a protease assay with casein sodium. Casein zymography was carried out according to the protocol (Invitrogen). More concretely, mature HtrA2 and mature HtrA2 (S306A) were mixed under non-reductive condition with equivalent volume of 2×SDS sample buffer, left to stand at room temperature for 10 min, followed by separation with 4-16% zymogram (Blue casein) gel (Zymogram Gel, Invitrogen). After completion of electrophoresis, they were renatured with 2.5% Triton X-100, and then subjected to a degradation reaction of casein in the developing buffer at 37= C. for overnight.
Meanwhile, a protease assay using casein sodium as an substrate was carried out in such that mature HtrA2 or mature HtrA2 (S306A) was mixed with casein sodium in a reaction buffer (150 mM NaCl, 50 mM Tris-HCl (pH 7.5)) so as to the concentration of the former might become 200 μg/ml and the concentration of the latter might become 400 μg/ml, and incubated at 37° C. for reactions. A portion of the reaction solution was sampled at three hours and overnight after initiation of the reaction, mixed with equivalent volume of 2×SDS sample buffer followed by boiling, and then subjected to SDS-PAGE. After that, the degradation of casein sodium was detected by Coomassie Brilliant Blue (CBB) staining.
The enzyme activity of the various types of HtrA2 each of which was expressed in a cultured cell was determined by the protease assay using casein sodium as a substrate (see Example 2).

B1: mature HtrA2 (S306A): SEQ ID NO: 6; HtrA2 mutant with substitution of the 174th serine residue of mature HtrA2 with alanine (protein)
chain: MAVPSPPPASPRSQYNFIADVVEKTAPAVVYIEILDRHPFLGREVPISNGSGFVVAADGLIVTNAHVVADRRRVRVRLLSGDTYEAVVTAVDPVADIATLRIQTKEPLPTLPLGRSADVRQGEFVVAMGSPFALQNTITSGIVSSAQRPARDLGLPQTNVEYIQTDAAIDFGNAGGPLVNLDGEVIGVNTMKVTAGISFAIPSDRLREFLHRGEKKNSSSGISGSQRRYIGVMMLTLSPSILAELQLREPSFPDVQHGVLIHKVILGSPAHRAGLRPGDVILAIGEQMVQNAEDVYEAVRTQSQLAVQIRRGRETLTLYVTPEVTE
modifications: Polypeptide consisting of the same amino acid sequence of SEQ ID NO4 wherein the 174th amino acid residue is substituted by Ala; mature HtrA2(S306A)
notes: HtrA2 mutant with substitution of the 174th serine residue of mature HtrA2 with alanine
Consider B1, for which the degradation of casein result was “degradation of casein was not observed”.
